{
  "source": "patent US20070042930A1",
  "about": "“Effect of beta-glucan on stem cell recruitment and tissue repair” (priority 2002, published 2007)",
  "system": "complement",
  "assay": "G-CSF mobilization: complement activation in bone marrow",
  "format": "in vivo, mice",
  "data": [
    {"molecule": "G-CSF: used for G-CSF-mediated stem cell mobilization (bone marrow transplantation) (protein, UniProt P09919 31-207, looked up) Granulocyte …: TPLGPASSLPQSFLLKCLEQVRKIQGDGAALQEKLVSECATYKLCHPEELVLLGHSLGIPWAPLSSCPSQALQLAGCLSQLHSGLFLYQGLLQALEGISPELGPTLDTLQLDVADFATTIWQQMEELGMAPALQPTQGAMPAFASAFQRRAGGVLVASHLQSFLEVSYRVLRHLAQP", "values": [
      {"measurement": "complement activation in bone marrow", "setting": "G-CSF mobilization, FIG. 8A and 8B", "value": "stimulates complement activation in bone marrow with iC3b deposition on stromal cells"},
      {"measurement": "complement activation in bone marrow", "setting": "immunoglobulin-deficient SCID mice, FIG. 9A through 9F", "value": "does not activate complement"}
    ]}
  ]
}
